Test results taken from the supplement of paper PMC12042874.
± gives the uncertainty stated by the source.

Assay: amyloid nucleation score (Sup35N fusion, yeast selection) (log enrichment); library NNK1; higher = more nucleation; inactive = no reads after selection
How it was run: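 Growth for 7 days at 30°C on medium lacking adenine and uracil followed a 24-hour induction with 100 μM copper sulfate of psi-negative yeast expressing peptides of 20 random codons fused to Sup35N. Input and output plasmid inserts were sequenced with Illumina, and sequences with under 100 input reads were excluded. Nucleation score is the DiMSum log enrichment of output over input reads, centred on the mode score of non-aggregating sequences.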
RLFLVEFIWNMR gave an amyloid nucleation score of 0.958 ± 0.71.
For YDRNRSMPSLLRP, the amyloid nucleation score was “inactive”.
AVLSGRHWHTLYNSIALSEL showed an amyloid nucleation score of 0.869 ± 0.45.
Work on KKRPPAPSMEVRLGARMVAG yielded an amyloid nucleation score of 0.324 ± 1.
MWAIFSLWVCSR showed an amyloid nucleation score of 1.35 ± 0.41.
Substance RLSVVDELLCVLILGFRCYT has an amyloid nucleation score of 0.372 ± 1.4.
For GRGLADISYVYRDVWICLAI, the amyloid nucleation score was 0.83 ± 0.43.
Work on LLVVVTLAI yielded an amyloid nucleation score of 0.89 ± 0.51.
In the case of GFVEVNTCLKEVSLPSNMPS, the amyloid nucleation score is reported as 0.714 ± 0.5.
In the case of GPPSWSELDFHYCVGGWFYP, the amyloid nucleation score is reported as -0.456 ± 0.56.
SNGIQPMERI gave an amyloid nucleation score of -1.01 ± 1.7.
TISKLGQPYRRNSKPL gave an amyloid nucleation score of -0.378 ± 0.41.
With RPNMVNVKNSRRFSL the amyloid nucleation score was 0.257 ± 0.48.
For FWSWSV, the amyloid nucleation score was -0.222 ± 0.42.
In the case of RIVEGWDTLSFLFRKGCEFF, the amyloid nucleation score is reported as 1.2 ± 0.56.
RTPFNVDPKPTDPRNTRCST showed an amyloid nucleation score of 0.822 ± 0.93.
LCDDHRPELCVYIVWTVVGE gave an amyloid nucleation score of 3.19 ± 0.22.
Work on LYLYNYRFAGLFFIDLETIW yielded an amyloid nucleation score of -0.415 ± 0.57.
In the case of SGSALYLCAISLRVSTEEKP, the amyloid nucleation score is reported as -0.178 ± 0.85.
AANGCASSV showed an amyloid nucleation score of -0.856 ± 0.44.
Work on WADNNTSH yielded an amyloid nucleation score of -0.094 ± 0.34.
In the case of FVGMSRFFKVH, the amyloid nucleation score is reported as -0.629 ± 0.39.
Substance GAIDRGCVDLARTCSLGLTG has an amyloid nucleation score of 0.508 ± 0.56.
Work on CCSTSADIHSARNDVWSYSE yielded an amyloid nucleation score of -0.271 ± 0.88.
For SVLCHCVLNVWLGWHLWIDP, the amyloid nucleation score was 0.707 ± 0.53.
SSYNLKYLWGCIC gave an amyloid nucleation score of 7.263 ± 0.048.
With IDVFLNALSVWNVIVDLIIV the amyloid nucleation score was -0.225 ± 0.42.
Substance DPPTL has an amyloid nucleation score of 0.409 ± 0.42.
Substance DMCLWARG has an amyloid nucleation score of 0.732 ± 1.
In the case of YYDYGEYIIKGVLPWIRGFY, the amyloid nucleation score is reported as 0.513 ± 0.31.
For LFIFFKV, the amyloid nucleation score was 0.049 ± 0.51.
For RVGEKSVEWPAFLRYLMKWF, the amyloid nucleation score was -0.008 ± 0.5.
With SCSELGMLERLDMGLTLEVL the amyloid nucleation score was -0.105 ± 0.36.
Work on LINKNSSSAFCVMLGHYWVR yielded an amyloid nucleation score of -1.03 ± 0.66.
With HLEGFYLGIWHGRSRVFSRN the amyloid nucleation score was 2.77 ± 0.23.
In the case of ISLSSGLALKPS, the amyloid nucleation score is reported as 1.41 ± 0.48.
Work on ACSCDALRSNLAIIKRESRV yielded an amyloid nucleation score of -0.766 ± 2.4.
YEMSY gave an amyloid nucleation score of -1.38 ± 2.4.
In the case of KTTLCM, the amyloid nucleation score is reported as -0.088 ± 0.39.
With DSRCHSSSGDRPTLAVYT the amyloid nucleation score was -0.198 ± 1.7.
Work on LRSNHWNHTCLHNIRGCS yielded an amyloid nucleation score of 3.42 ± 0.071.
CNCMVLSPLDVMEPIAMGFQ gave an amyloid nucleation score of 0.455 ± 1.4.
With AFNRSKQSIKAFSA the amyloid nucleation score was -0.369 ± 1.2.
With YYSWQEDGFPFTNVSMFWS the amyloid nucleation score was -0.076 ± 0.37.
For VYAILKDFFYFFGVNFFCCF, the amyloid nucleation score was 4.18 ± 0.06.
Work on LVYSFRKTFSC yielded an amyloid nucleation score of 7.523 ± 0.047.
With FWVAIRVRVIWVNKKNDGCI the amyloid nucleation score was -0.147 ± 0.66.
In the case of YSYSEGSLYQCSVSVV, the amyloid nucleation score is reported as 0.601 ± 0.7.
Substance GSADMRLDLQVVGCMTCRFE has an amyloid nucleation score of 0.386 ± 1.1.
In the case of ILREQNSLDTSRFYRGRSLV, the amyloid nucleation score is reported as 0.187 ± 0.65.
CCRARDLIYLNITHAFFSIL showed an amyloid nucleation score of -0.289 ± 0.47.
For RRGAKRSLWLIRNLWWDKSK, the amyloid nucleation score was “inactive”.
DFSSNDGWV showed an amyloid nucleation score of 0.444 ± 0.47.
With NDGVNPYNMACKMLSCYNSA the amyloid nucleation score was 1.14 ± 0.97.
Work on HLRCCIKTLRVSHYGGPALR yielded an amyloid nucleation score of -0.596 ± 0.37.
Work on KWQEQGVIFSNFLLHRHWDV yielded an amyloid nucleation score of -1.23 ± 1.6.
RSSKGIPLMENPLVYTMASR gave an amyloid nucleation score of 0.005 ± 1.7.
For LIGIVKGTTVSRMGNTVIDR, the amyloid nucleation score was “inactive”.
With ISRGYHRYLFSKSNECGRLN the amyloid nucleation score was “inactive”.
Substance GNVAWYTSIGCGGMILWADF has an amyloid nucleation score of -0.124 ± 0.76.
Work on MDFYVLPNCRQNGMLCERSC yielded an amyloid nucleation score of 0.508 ± 0.67.
RVNYIHD gave an amyloid nucleation score of -0.057 ± 0.46.
LSQLN showed an amyloid nucleation score of -0.116 ± 0.26.
Substance VNGARRQFRRLMPCLEAWVS has an amyloid nucleation score of -0.372 ± 0.32.
Substance KPKCNHRDRTSLEILRNNAL has an amyloid nucleation score of 1.35 ± 0.43.
Work on CFEFDPFMNMVKSCWCCQVA yielded an amyloid nucleation score of -0.281 ± 0.93.
For MADFFIHCFLSSYCEWFIWR, the amyloid nucleation score was -0.283 ± 0.46.
With FASWFFMCRDGGLIM the amyloid nucleation score was -0.573 ± 0.66.
Work on LVELLVWMAGWRCGDFLACR yielded an amyloid nucleation score of 0.867 ± 0.58.
Substance FNVALFMEI has an amyloid nucleation score of 1.07 ± 0.27.
ICILLFGVRSDCM gave an amyloid nucleation score of 1.44 ± 0.37.
